US7122652B1, “Polymorphisms in the human hPXR gene and their use diagnostic and therapeutic applications” (priority 1999, dated 2006)

Tested on: hPXR-dependent promoter-reporter gene plasmid pGL3(DR3)3TK(−105)
Assay: hPXR-dependent promoter-reporter gene (luciferase) assay in co-transfected LS174T cells
Assay type: cell-based, human
Settings: 42 hours; for hPXR-mediated transcriptional activation of the reporter gene upon treatment with rifampicin, relative to wild type hPXR: 10 μM rifampicin, FIG. 6A; for basal activity in the absence of added hPXR activators, relative to wild type hPXR: 0.1% DMSO only, FIG. 6B
Experimental: FIG. 6: LS174T cells were co-transfected with the promoter artificial hPXR dependent reporter gene pGL3(DR3)3Tk(−105), pCMVβ and expression plasmids for hPXR variants, as indicated. Cells were treated for 42 hours with 10 μM rifampicin or 0.1% DMSO, then harvested and analyzed for luciferase and β-galactosidase activities. Data are shown as mean value ±SD. The activity of each hPXR variant in the presence of DMSO only was taken as 1 (A, B) or 100% (C). A) The effect of hPXR variants following 10 μM rifampicin. B) The effect of hPXR variants in the absence of exogenous inducers.
The functional consequences of the protein variants were investigated in LS174T cells. LS174T cells were first co-transfected with wild-type or variant hPXR expression plasmids together with the hPXR-dependent promoter-reporter gene plasmid pGL3(DR3)3TK(−105). […] The cells were treated with the xenobiotic rifampicin, a known activator of human hPXR (Blumberg, Genes Dev (1998), 3195–3205; Lehmann, J Clin Invest (1998), 1016–1023). […] In contrast, hPXR-mediated transcriptional activation was impaired in V140M, D163G and hPXR-2 variants. […] Changes in basal activity of variants are independent from activator-dependent activity.

B1: E18K: hPXR protein variant, amino acid substitution of E to K at position 18 (c. 52G > A, exon 2) (protein, UniProt O75469 1-434, looked up, variant E18K)
Nuclear receptor subfamily 1 …: MEVRPKESWNHADFVHCKDTESVPGKPSVNADEEVGGPQICRVCGDKATGYHFNVMTCEGCKGFFRRAMKRNARLRCPFRKGACEITRKTRRQCQACRLRKCLESGMKKEMIMSDEAVEERRALIKRKKSERTGTQPLGVQGLTEEQRMMIRELMDAQMKTFDTTFSHFKNFRLPGVLSSGCELPESLQAPSREEAAKWSQVRKDLCSLKVSLQLRGEDGSVWNYKPPADSGGKEIFSLLPHMADMSTYMFKGIISFAKVISYFRDLPIEDQISLLKGAAFELCQLRFNTVFNAETGTWECGRLSYCLEDTAGGFQQLLLEPMLKFHYMLKKLQLHEEEYVLMQAISLFSPDRPGVLQHRVVDQLQEQFAITLKSYIECNRPQPAHRFLFLKIMAMLTELRSINAQHTQRLLRIQDIHPFATPLMQELFGITGS
hPXR-mediated transcriptional activation of the reporter gene upon treatment with rifampicin, relative to wild type hPXR: as efficiently as wild type hPXR
basal activity in the absence of added hPXR activators, relative to wild type hPXR: lower basal activity than wild type hPXR

B2: G36R: hPXR protein variant, amino acid substitution of G to R at position 36 (c. 106G > A, exon 2) (protein, UniProt O75469 1-434, looked up, variant G36R)
Nuclear receptor subfamily 1 …: MEVRPKESWNHADFVHCEDTESVPGKPSVNADEEVRGPQICRVCGDKATGYHFNVMTCEGCKGFFRRAMKRNARLRCPFRKGACEITRKTRRQCQACRLRKCLESGMKKEMIMSDEAVEERRALIKRKKSERTGTQPLGVQGLTEEQRMMIRELMDAQMKTFDTTFSHFKNFRLPGVLSSGCELPESLQAPSREEAAKWSQVRKDLCSLKVSLQLRGEDGSVWNYKPPADSGGKEIFSLLPHMADMSTYMFKGIISFAKVISYFRDLPIEDQISLLKGAAFELCQLRFNTVFNAETGTWECGRLSYCLEDTAGGFQQLLLEPMLKFHYMLKKLQLHEEEYVLMQAISLFSPDRPGVLQHRVVDQLQEQFAITLKSYIECNRPQPAHRFLFLKIMAMLTELRSINAQHTQRLLRIQDIHPFATPLMQELFGITGS
hPXR-mediated transcriptional activation of the reporter gene upon treatment with rifampicin, relative to wild type hPXR: as efficiently as wild type hPXR
basal activity in the absence of added hPXR activators, relative to wild type hPXR: lower basal activity than wild type hPXR

B3: D163G: hPXR protein variant, amino acid substitution of D to G at position 163 (c. 488A > G, exon 4) (protein, UniProt O75469 1-434, looked up, variant D163G)
Nuclear receptor subfamily 1 …: MEVRPKESWNHADFVHCEDTESVPGKPSVNADEEVGGPQICRVCGDKATGYHFNVMTCEGCKGFFRRAMKRNARLRCPFRKGACEITRKTRRQCQACRLRKCLESGMKKEMIMSDEAVEERRALIKRKKSERTGTQPLGVQGLTEEQRMMIRELMDAQMKTFGTTFSHFKNFRLPGVLSSGCELPESLQAPSREEAAKWSQVRKDLCSLKVSLQLRGEDGSVWNYKPPADSGGKEIFSLLPHMADMSTYMFKGIISFAKVISYFRDLPIEDQISLLKGAAFELCQLRFNTVFNAETGTWECGRLSYCLEDTAGGFQQLLLEPMLKFHYMLKKLQLHEEEYVLMQAISLFSPDRPGVLQHRVVDQLQEQFAITLKSYIECNRPQPAHRFLFLKIMAMLTELRSINAQHTQRLLRIQDIHPFATPLMQELFGITGS
hPXR-mediated transcriptional activation of the reporter gene upon treatment with rifampicin, relative to wild type hPXR: 50 % of wild type activity
basal activity in the absence of added hPXR activators, relative to wild type hPXR: approximately 10 % of wild type

B4: A370T: hPXR protein variant, amino acid substitution of A to T at position 370 (c. 1108G > A, exon 8) (protein, UniProt O75469 1-434, looked up, variant A370T)
Nuclear receptor subfamily 1 …: MEVRPKESWNHADFVHCEDTESVPGKPSVNADEEVGGPQICRVCGDKATGYHFNVMTCEGCKGFFRRAMKRNARLRCPFRKGACEITRKTRRQCQACRLRKCLESGMKKEMIMSDEAVEERRALIKRKKSERTGTQPLGVQGLTEEQRMMIRELMDAQMKTFDTTFSHFKNFRLPGVLSSGCELPESLQAPSREEAAKWSQVRKDLCSLKVSLQLRGEDGSVWNYKPPADSGGKEIFSLLPHMADMSTYMFKGIISFAKVISYFRDLPIEDQISLLKGAAFELCQLRFNTVFNAETGTWECGRLSYCLEDTAGGFQQLLLEPMLKFHYMLKKLQLHEEEYVLMQAISLFSPDRPGVLQHRVVDQLQEQFTITLKSYIECNRPQPAHRFLFLKIMAMLTELRSINAQHTQRLLRIQDIHPFATPLMQELFGITGS
hPXR-mediated transcriptional activation of the reporter gene upon treatment with rifampicin, relative to wild type hPXR: slightly impaired transcriptional activation
basal activity in the absence of added hPXR activators, relative to wild type hPXR: 207 % of wild type

B5: V140M: hPXR protein variant, amino acid substitution of V to M at position 140 (c. 418G > A, exon 4) (protein, UniProt O75469 1-434, looked up, variant V140M)
Nuclear receptor subfamily 1 …: MEVRPKESWNHADFVHCEDTESVPGKPSVNADEEVGGPQICRVCGDKATGYHFNVMTCEGCKGFFRRAMKRNARLRCPFRKGACEITRKTRRQCQACRLRKCLESGMKKEMIMSDEAVEERRALIKRKKSERTGTQPLGMQGLTEEQRMMIRELMDAQMKTFDTTFSHFKNFRLPGVLSSGCELPESLQAPSREEAAKWSQVRKDLCSLKVSLQLRGEDGSVWNYKPPADSGGKEIFSLLPHMADMSTYMFKGIISFAKVISYFRDLPIEDQISLLKGAAFELCQLRFNTVFNAETGTWECGRLSYCLEDTAGGFQQLLLEPMLKFHYMLKKLQLHEEEYVLMQAISLFSPDRPGVLQHRVVDQLQEQFAITLKSYIECNRPQPAHRFLFLKIMAMLTELRSINAQHTQRLLRIQDIHPFATPLMQELFGITGS
hPXR-mediated transcriptional activation of the reporter gene upon treatment with rifampicin, relative to wild type hPXR: 50 % of wild type activity
basal activity in the absence of added hPXR activators, relative to wild type hPXR: 130 % of wild type

B6: P27S: hPXR protein variant, amino acid substitution of P to S at position 27 (c. 79C > T, exon 2) (protein, UniProt O75469 1-434, looked up, variant P27S)
Nuclear receptor subfamily 1 …: MEVRPKESWNHADFVHCEDTESVPGKSSVNADEEVGGPQICRVCGDKATGYHFNVMTCEGCKGFFRRAMKRNARLRCPFRKGACEITRKTRRQCQACRLRKCLESGMKKEMIMSDEAVEERRALIKRKKSERTGTQPLGVQGLTEEQRMMIRELMDAQMKTFDTTFSHFKNFRLPGVLSSGCELPESLQAPSREEAAKWSQVRKDLCSLKVSLQLRGEDGSVWNYKPPADSGGKEIFSLLPHMADMSTYMFKGIISFAKVISYFRDLPIEDQISLLKGAAFELCQLRFNTVFNAETGTWECGRLSYCLEDTAGGFQQLLLEPMLKFHYMLKKLQLHEEEYVLMQAISLFSPDRPGVLQHRVVDQLQEQFAITLKSYIECNRPQPAHRFLFLKIMAMLTELRSINAQHTQRLLRIQDIHPFATPLMQELFGITGS
hPXR-mediated transcriptional activation of the reporter gene upon treatment with rifampicin, relative to wild type hPXR: as efficiently as wild type hPXR
basal activity in the absence of added hPXR activators, relative to wild type hPXR: lower basal activity than wild type hPXR
